According to patent US20120282271:

How the values were obtained:
[1] = tested on: pro-MSP-R483E (cleavage-site mutant of pro-MSP)
[2] = tested on: pro-MSP (single-chain recombinant human pro-macrophage-stimulating protein, C672A)

Sequence of extracellular domain of human recombinant hepsin (chain, as listed by the source): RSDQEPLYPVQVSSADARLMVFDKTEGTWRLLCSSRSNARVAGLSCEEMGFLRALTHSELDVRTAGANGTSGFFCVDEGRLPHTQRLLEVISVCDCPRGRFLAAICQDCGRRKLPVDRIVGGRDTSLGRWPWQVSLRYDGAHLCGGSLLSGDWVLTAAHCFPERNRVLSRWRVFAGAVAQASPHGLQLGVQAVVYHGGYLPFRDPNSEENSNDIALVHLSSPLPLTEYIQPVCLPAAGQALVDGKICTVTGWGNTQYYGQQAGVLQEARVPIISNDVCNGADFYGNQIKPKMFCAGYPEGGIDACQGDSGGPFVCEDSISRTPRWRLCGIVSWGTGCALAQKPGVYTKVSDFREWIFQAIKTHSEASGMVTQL
Sequence of pro-MSP-R483E (cleavage-site mutant of pro-MSP) (chain, as listed by the source R483E): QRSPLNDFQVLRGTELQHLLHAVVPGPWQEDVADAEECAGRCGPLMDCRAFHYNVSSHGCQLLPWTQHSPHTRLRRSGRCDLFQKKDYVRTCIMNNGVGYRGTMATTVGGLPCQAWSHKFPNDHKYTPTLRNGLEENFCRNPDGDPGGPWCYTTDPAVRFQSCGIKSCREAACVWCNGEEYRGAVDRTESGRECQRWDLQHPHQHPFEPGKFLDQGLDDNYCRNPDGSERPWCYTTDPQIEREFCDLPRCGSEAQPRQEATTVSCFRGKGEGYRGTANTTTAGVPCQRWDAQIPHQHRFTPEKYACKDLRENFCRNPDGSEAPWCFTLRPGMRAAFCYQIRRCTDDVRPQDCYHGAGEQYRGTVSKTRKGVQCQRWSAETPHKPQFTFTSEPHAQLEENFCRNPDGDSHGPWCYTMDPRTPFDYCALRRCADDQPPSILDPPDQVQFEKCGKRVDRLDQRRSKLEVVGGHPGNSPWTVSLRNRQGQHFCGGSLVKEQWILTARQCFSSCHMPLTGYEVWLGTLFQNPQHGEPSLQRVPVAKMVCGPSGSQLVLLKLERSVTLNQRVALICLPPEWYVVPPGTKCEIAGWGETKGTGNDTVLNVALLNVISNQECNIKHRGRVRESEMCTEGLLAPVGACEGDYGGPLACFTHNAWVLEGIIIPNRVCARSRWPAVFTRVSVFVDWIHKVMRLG

Question: What does the source list for “extracellular domain of human recombinant hepsin”?
Answer: proteolytic processing by hepsin, SDS-PAGE [1]: Hepsin did not cleave this mutant pro-MSP despite prolonged incubation (24 hours); proteolytic activation of pro-MSP, gel-mobility shift on reducing SDS-PAGE (hepsin 1.25-10 nM, 37° C.) [2]: Hepsin activated pro-MSP in a dose-dependent and time dependent manner
